Earlier results on one substance are cited in US20250388691A1, “METHODS FOR TREATING LYMPHOMA” (Xencor, Inc., priority 2022, published 2025).

For data set [1], the system named is R/R DLBCL. To be noted: ongoing Phase 1 study XmAb13676-01, NCT02924402.
[2] abbreviates: plamotamab, Investigator's Brochure, 2021.

Take “plamotamab: humanized bsAb that binds both CD3 and the tumor antigen CD20; Fab-scFv-Fc format”: the “TLS, R/R NHL subjects” value (Phase 1 monotherapy, 2 of the 80 R/R NHL subjects) is given as 2.5%. The “any-grade TLS, subjects” value (Phase 1 monotherapy, CD20-expressing hematologic malignancies, 4 of 96 subjects) is 4.2%. Also, under “XmAb13676-01 study, especially with the Cycle 1 Day 1 dose”, the CRS entry is on record as “frequently observed”. Further, the “serious or fatal events of TLS” value (plamotamab monotherapy in R/R DLBCL) is on record as “no serious or fatal events of TLS”. Further, under setting [2], the “Adverse events of neutropenia (all grades)” value is recorded as 20.8% and the “Adverse events of thrombocytopenia (all grades)” value is 24.0%. Further, the “responses in subjects with R/R DLBCL” value in data set [1] was “durable responses”.
